Experimental data: patent US8530619B2, “Identification of the hepcidin binding site on ferroportin” (University of Utah Research Foundation, priority 2007, dated 2013)
“Also recorded” adds a separate entry of the source. One block for each compound: values may come before it. No end group written: not given here.

What was measured:
hepcidin [1] = target: T1, hepcidin (Homo sapiens, UniProt P81172, M80Y); assay: Inhibition of hepcidin-mediated Fpn-GFP internalization in HEK293TFpn-GFP cells by peptides preincubated with hepcidin; format: cell-based; details: preincubation at 37° C.
T1 construct: generates the mature bioactive 25-amino acid form found in plasma and urine; made in house; host or cells: chemical synthesis
T1 sequence (P81172 60-84 M80Y): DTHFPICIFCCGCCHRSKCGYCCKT
Procedure: (§1) FIGS. 1A-D illustrate inhibition of hepcidin-mediated Fpn internalization by HBD. […] The HBD peptides and hepcidin were mixed at an equal molar ratio for two hours at 37° C. and then added to cells for one or 24 hours. Fpn internalization at one hour was analyzed by epifluorescence (upper panel) and the percentage of cells showing internalized Fpn-GFP at one and 24 hours was quantified (lower panel). The data represent the standard error of the mean from analyzing over 10 fields (20-30 cells) per sample. FIG. 1B illustrates HBD inhibition of Fpn-GFP internalization. Fpn-GFP expressing cells were incubated with hepcidin, hepcidin preincubated with HBD at 37° C. or hepcidin preincubated with HBD at 4° C. Fpn-GFP internalization at one (black bars) and 24 (grey bars) hours was quantified. The percentage of cells with internalized Fpn is shown. FIG. 1C illustrates that ^125I-hepcidin binds to HBD similarly to unlabeled hepcidin. ^125I-hepcidin was preincubated with HBD at 37° C. or 4° C. for one hour and then the mixture added to cells for one hour (black bars) or twenty-four hours (grey bars). The data are expressed as in FIG. 1B. FIG. 1D illustrates the fact that binding of hepcidin to HBD is reversible by low temperature. In the left panel the samples were treated as in FIG. 1C. In the right panel, the sample was incubated at 37° C. and was placed at 4° C. for four hours. The mixture was then incubated with cells at 37° C. and the internalization of Fpn-GFP was determined after one (black bars) or twenty four hours (grey bars).
(§2) Incubation of HEK293TFpn-GFP cells with hepcidin results in the internalization of cell surface Fpn-GFP (2) and FIG. 1A. […] Previously it was determined that hepcidin binding to Fpn was temperature dependent (2).
(§3) HEK293TFpn-GFP, a stable cell line in which Fpn-Green fluorescent protein (GFP) expression is regulated by the ecdysone promoter has been described previously (2).
(§4) Peptides were synthesized at the DNA/Peptide Core Facility, University of Utah, Salt Lake City, Utah. The peptides were synthesized with two arginines added at the amino and carboxyl terminals. […] Microscope analysis was carried out using an Olympus BX51 microscope (Olympus, Tokyo, Japan). Images were acquired using Picture Frame 2.5 software (Olympus America, East Muskogee, Okla.). All experiments were repeated a minimum of 5 times.
(§5) To characterize the interaction of the HBD with hepcidin, hepcidin was labeled at an iodinateable tyrosine to produce ^125I-hepcidin. Previously, it was shown that ^125I-hepcidin bound to Fpn indistinguishably from hepcidin that lacked the iodinateable tyrosine (2). HBD was then conjugated to agarose beads to produce immobilized HBD (I-HBD), which was then preincubated with ^125I-hepcidin at 37° C. prior to addition to Fpn-GFP expressing cells.

hepcidin [2] = target: T2, hepcidin (Homo sapiens, UniProt P81172); assay: as above; format: cell-based; details: peptide preincubated with hepcidin at equal molar amounts, 37° C.; HEK293TFpn-GFP cells
T2 construct: generates the mature bioactive 25-amino acid form found in plasma and urine; made in house; host or cells: chemical synthesis
T2 sequence (P81172 60-84): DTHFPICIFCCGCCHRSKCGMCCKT
Procedure: as §1, §2, §3, §4, §5

serum hepcidin = assay: Serum hepcidin levels after LPS injection, I-HBD assay; format: in vivo; details: LPS injected mice
Procedure: FIGS. 5A-E illustrate the hepcidin concentrations in mice and human sera. In FIG. 5A, different concentrations of serum were incubated with a known amount of ^125I-hepcidin and I-HBD for 18 hours at 37° C. The beads were washed and radioactivity bound to the beads was determined. A standard curve was determined by incubating known amounts of hepcidin with ^125I-hepcidin and HBD-beads. In FIG. 5B, sera was obtained from wild type mice (C57/Bl6) or from mice that were homozygous for a targeted gene deletion in HFE or homozygous or heterozygous for a targeted gene deletion in the HAMP gene. […] The beads were washed and the amount of radioactivity was determined. Serum hepcidin levels were calculated relative to a standard curve. […] Sera was obtained from the mice 10 hours later and the hepcidin concentration was determined as described in FIG. 5A. In FIG. 5D hepcidin levels were measured in different strains of mice. […] Hepcidin levels were determined as in FIG. 5A. The serum iron (SI), […] (TIBC) and transferrin saturation was calculated as described herein. Each sample was analyzed in triplicate and the error bars represent the standard deviation
HBD peptides were immobilized by covalently attaching them to agarose beads. […] The fluid was removed and the radioactivity bound to beads was determined by gamma counting (Perkin/Elmer). […]

125I-hepcidin = target: T3, 125I-hepcidin (Homo sapiens, UniProt P81172, M80Y); assay: 125I-hepcidin binding to bead-immobilized peptides; details: 37° C.; listed as HBD peptide containing the human Fpn mutation C326Y
T3 construct: hepcidin 25 synthesized with a tyrosine substitution at position M21 (Y-Hep 25); made in house; host or cells: chemical synthesis
T3 sequence (P81172 60-84 M80Y): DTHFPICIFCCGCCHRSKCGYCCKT
Procedure: FIGS. 2A-C illustrates that the binding of ^125I-hepcidin to HBD is specific and temperature dependent. In FIG. 2A peptides (HBD, scrambled-HBD or mutant (C326Y HBD) were conjugated to beads and ^125I-hepcidin was added to the bead-immobilized peptides (I-HBD) for 18 hours at 37° C. (black bars) or 4° C. (grey bars). The beads were washed and the amount of ^125I-hepcidin bound to the I-HBD was determined. In FIG. 2B a sub saturating concentration of ^125I-hepcidin (0.6 μg/ml) was incubated with I-HBD for 18 hours at 37° C. in the presence or absence of known concentrations of either hepcidin 25 (Hep 25-open circles) or hepcidin 25 synthesized with a tyrosine substitution at position M21 (Y-Hep 25) and the amount of radioactivity bound to the I-HBD determined. […]
FIGS. 3A and 3B illustrate that the dissociation of the hepcidin/HBD complex is accelerated by low temperature. […] (open circle) for the specified times and the amount of radioactivity remaining bound to the I-HBD was determined. The data are expressed as radioactivity at each time point relative to the amount bound at time zero. In FIG. 3B the ^125I-hepcidin/1-HBD complex was allowed to form at 37° C., the complex was then washed and incubated with the indicated concentration of NEM and the amount of bound radioactivity was determined after a four-hour incubation (closed circles). […]

[3] = target: T4, I-HBD (hepcidin binding domain of ferroportin) (Homo sapiens, UniProt Q9NP59); assay: Competition with 125I-hepcidin for binding to I-HBD beads
T4 construct: made in house; host or cells: chemical synthesis
T4 sequence (Q9NP59 with tags, fused parts or gaps limits assumed): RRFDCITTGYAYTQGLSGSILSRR
Procedure: FIGS. 2A-C illustrates that the binding of ^125I-hepcidin to HBD is specific and temperature dependent. In FIG. 2A peptides (HBD, scrambled-HBD or mutant (C326Y HBD) were conjugated to beads and ^125I-hepcidin was added to the bead-immobilized peptides (I-HBD) for 18 hours at 37° C. (black bars) or 4° C. (grey bars). The beads were washed and the amount of ^125I-hepcidin bound to the I-HBD was determined. In FIG. 2B a sub saturating concentration of ^125I-hepcidin (0.6 μg/ml) was incubated with I-HBD for 18 hours at 37° C. in the presence or absence of known concentrations of either hepcidin 25 (Hep 25-open circles) or hepcidin 25 synthesized with a tyrosine substitution at position M21 (Y-Hep 25) and the amount of radioactivity bound to the I-HBD determined. In FIG. 2C sub saturating levels of ^125I-hepcidin were incubated with I-HBD at different temperatures.
The binding of ^125I-hepcidin could be reduced by addition of native non-radioactive hepcidin with an apparent K of approximately 200 nM (FIG. 2B). There was no binding of ^125I-hepcidin to I-HBD at 4° C. and ^125I-hepcidin bound to I-HBD at 37° C. was released when subsequently placed at 4° C. (data not shown).
HBD peptides were immobilized by covalently attaching them to agarose beads. […] The fluid was removed and the radioactivity bound to beads was determined by gamma counting (Perkin/Elmer).

Fpn = target: T5, Fpn (Homo sapiens, UniProt Q9NP59); details: reference (7); cited from earlier work
T5 sequence (Q9NP59 1-571): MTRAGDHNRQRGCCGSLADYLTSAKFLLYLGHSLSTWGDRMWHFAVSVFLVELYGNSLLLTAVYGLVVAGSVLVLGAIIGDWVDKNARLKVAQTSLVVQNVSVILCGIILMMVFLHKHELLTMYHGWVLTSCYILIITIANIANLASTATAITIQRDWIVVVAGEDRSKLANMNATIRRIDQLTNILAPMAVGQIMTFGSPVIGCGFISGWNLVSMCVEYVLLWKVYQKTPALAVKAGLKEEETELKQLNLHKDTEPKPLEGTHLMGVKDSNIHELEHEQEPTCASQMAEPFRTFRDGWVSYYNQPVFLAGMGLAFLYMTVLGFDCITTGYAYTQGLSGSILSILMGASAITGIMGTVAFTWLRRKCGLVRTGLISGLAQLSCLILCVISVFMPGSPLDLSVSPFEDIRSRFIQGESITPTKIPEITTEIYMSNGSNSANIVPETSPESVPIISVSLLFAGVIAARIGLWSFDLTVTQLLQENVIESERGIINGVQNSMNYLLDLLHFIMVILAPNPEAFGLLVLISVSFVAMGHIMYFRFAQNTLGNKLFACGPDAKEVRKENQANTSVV

I-HBD = target: T6, I-HBD (Homo sapiens, UniProt Q9NP59); assay: Effect of NEM on 125I-hepcidin binding to I-HBD
T6 construct: made in house; host or cells: chemical synthesis
Procedure: FIGS. 3A and 3B illustrate that the dissociation of the hepcidin/HBD complex is accelerated by low temperature. In FIG. 3A ^125I-hepcidin was added to I-HBD and a complex was allowed to form at 37° C. The I-HBD/^125I-hepcidin complex was washed and then incubated with an excess of non-radioactive hepcidin. The samples were then incubated at 37° C. (closed circle) or 4° C. (open circle) for the specified times and the amount of radioactivity remaining bound to the I-HBD was determined. The data are expressed as radioactivity at each time point relative to the amount bound at time zero. In FIG. 3B the ^125I-hepcidin/1-HBD complex was allowed to form at 37° C., the complex was then washed and incubated with the indicated concentration of NEM and the amount of bound radioactivity was determined after a four-hour incubation (closed circles). I-HBD alone was also incubated with the specified concentrations of NEM for 2 hours. The I-HBD beads were washed and then ^125I-hepcidin was added at 37° C. and the amount of bound radioactivity was determined after a four-hour incubation (open circles).

Fpn-GFP internalization activity of 125I-hepcidin after preincubation with peptide (hepcidin [1]): did not affect | hepcidin-mediated internalization of Fpn-GFP (hepcidin [2]): did not prevent Fpn-internalization
Compound: HBD Scramble: same amino acid composition as HBD in randomized sequence, RR-ILSLFDAYCTGTQITGSGSY-RR (SEQ ID NO: 3) (RRILSLFDAYCTGTQITGSGSYRR; HBD Scramble)

Compound: lipopolysaccharide [LPS]
hepcidin levels in sera (serum hepcidin): two-fold increase

125I-hepcidin binding to the peptide (125I-hepcidin): did not bind ^125I-hepcidin | Fpn-GFP internalization activity of 125I-hepcidin after preincubation with peptide (hepcidin [1]): did not affect
Compound: HBD Mutant: Fpn peptide containing the C326Y mutation, RR-FDYITTGYAYTQGLSGSILS-RR (SEQ ID NO: 4) (RRFDYITTGYAYTQGLSGSILSRR; HBD Mutant)
hepcidin-mediated internalization of Fpn-GFP (hepcidin [2]): did not prevent hepcidin mediated Fpn-GFP internalization

Compound: Hep20: hepcidin derivative with the five amino terminal amino acids deleted (ICIFCCGCCHRSKCGMCCKT; not fully specified (N-terminus, C-terminus); ends and bridges not checked)
binding to HBD / I-HBD [3]: nor do they bind to HBD; also recorded: does not bind to I-HBD | binding to Fpn (Fpn): do not bind to Fpn

Compound: CCN1C(=O)C=CC1=O [NEM, N-ethylmaleimide]
125I-hepcidin binding activity of I-HBD (I-HBD; I-HBD treated with NEM before 125I-hepcidin): loss of ^125I-hepcidin binding activity | 125I-hepcidin/I-HBD complex (I-HBD; NEM added after complex formed at 37° C.): the complex was not affected
